Columns and labels:
[1] = target: T1, human FcRH5 on stably transfected cells (BJAB.huFcRH5, OPM2.huFcRH5) (human, UniProt Q96RD9 16-977); assay: Scatchard analysis: 0.5 nM 125I-labeled antibody competed with the unlabeled antibody (50 to 0.02 nM) on BJAB.huFcRH5 cells, 4 h at 4 C; St. Error 0.007
T1 construct: also called BJAB-FcRH5; OPM2-FcRH5
T1 chain: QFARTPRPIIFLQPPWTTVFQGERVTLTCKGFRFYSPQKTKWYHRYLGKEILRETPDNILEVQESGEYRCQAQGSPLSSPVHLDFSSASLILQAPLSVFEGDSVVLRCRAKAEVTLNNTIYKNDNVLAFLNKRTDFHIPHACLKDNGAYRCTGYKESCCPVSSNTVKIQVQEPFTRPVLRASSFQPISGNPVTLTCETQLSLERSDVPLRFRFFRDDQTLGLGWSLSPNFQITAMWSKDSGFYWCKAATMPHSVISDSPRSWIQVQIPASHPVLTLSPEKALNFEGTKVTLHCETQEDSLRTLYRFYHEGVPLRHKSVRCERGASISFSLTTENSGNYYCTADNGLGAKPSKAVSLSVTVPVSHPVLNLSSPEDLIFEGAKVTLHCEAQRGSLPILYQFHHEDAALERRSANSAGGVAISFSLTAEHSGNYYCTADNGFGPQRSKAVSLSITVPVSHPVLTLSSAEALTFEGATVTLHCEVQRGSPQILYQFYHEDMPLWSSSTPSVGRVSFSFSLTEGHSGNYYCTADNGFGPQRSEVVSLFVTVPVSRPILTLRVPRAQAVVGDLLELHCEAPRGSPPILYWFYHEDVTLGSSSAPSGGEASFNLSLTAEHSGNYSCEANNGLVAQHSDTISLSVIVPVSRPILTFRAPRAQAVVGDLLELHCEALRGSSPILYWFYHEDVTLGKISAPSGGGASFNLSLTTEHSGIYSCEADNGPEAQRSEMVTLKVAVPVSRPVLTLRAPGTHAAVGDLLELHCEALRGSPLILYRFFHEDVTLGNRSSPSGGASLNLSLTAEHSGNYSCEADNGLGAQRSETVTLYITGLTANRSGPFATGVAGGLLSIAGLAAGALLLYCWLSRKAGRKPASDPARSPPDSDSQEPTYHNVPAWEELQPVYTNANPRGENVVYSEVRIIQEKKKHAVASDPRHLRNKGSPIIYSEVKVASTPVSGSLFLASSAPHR

[2] = target: T2, gD tagged human FcRH2 on SVT2 cells (human, UniProt Q96LA5 20-508); assay: FACS, SVT2.MSCV.gD.FcRH2 cells, PE secondary antibody
T2 construct: whole, on cells; also called huFcRH2; not shown: gD tag; the construct for this FcRH is not described
T2 sequence (looked up): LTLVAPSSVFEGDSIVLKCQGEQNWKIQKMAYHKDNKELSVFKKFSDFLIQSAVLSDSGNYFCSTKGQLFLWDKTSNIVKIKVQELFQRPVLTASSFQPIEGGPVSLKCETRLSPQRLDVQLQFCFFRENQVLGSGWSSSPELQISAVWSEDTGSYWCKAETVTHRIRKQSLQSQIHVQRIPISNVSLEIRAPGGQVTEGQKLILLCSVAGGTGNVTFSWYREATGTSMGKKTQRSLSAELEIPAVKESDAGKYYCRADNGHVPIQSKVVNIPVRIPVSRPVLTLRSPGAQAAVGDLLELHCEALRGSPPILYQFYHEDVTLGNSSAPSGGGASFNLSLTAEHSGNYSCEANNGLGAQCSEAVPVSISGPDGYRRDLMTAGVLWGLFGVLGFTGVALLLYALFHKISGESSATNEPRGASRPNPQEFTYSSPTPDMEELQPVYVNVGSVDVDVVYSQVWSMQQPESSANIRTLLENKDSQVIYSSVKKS

B1: murine monoclonal antibody anti-FcRH5-13G9 (antibody, V domains shown)
VH: EVQLVQSGPELKKPGETVKISCKASGYTFTNYGMNWVKQAPGKGLKWMGWVNTYTGEPTYTDDFKGRFAFSVETSASTVFLQINNLKNEDTATYFCARRSIPYYYAMDYWGQGTSLT
VL: DIVMTQSQKIMSTSVGDRVNVTCKASQNVGSNVAWYHQKPGQSPKALIYSASYRYSGVPDRFTGSGSGTDFTLTISNVQSEDLAEYFCQQYKTWTFGGGTKLEIKR
notes: Whole murine IgG from hybridoma; also called 13G9.1.1; mu13G9
- Kd [1]: 130 pM
- binding result [2]: no binding (tested: 1.0 ug per about 10^6 cells (p-1120))
